Reference: US20210340516A1, “COMPOSITIONS CONTAINING ARGINASE 1 FOR THE TREATMENT OF NEUROVASCULAR AND RETINAL VASCULAR DISORDERS” (Augusta University Research Institute, Inc., priority 2020, published 2021)

Legend:
[1] = human, in vivo; cited from earlier work
retinal explants = experiment: Ex vivo retinal explants subjected to OGD/R, NeuN flat-mount staining; assay type: cell-based, mouse; settings: 3 hours OGD/21 hours reoxygenation, treated at reoxygenation; untreated 55%, PEG only 48%
Text: Evaluation of retinal neurodegeneration: Retina flat-mounts and explants were immunolabeled for the neuronal marker, NeuN (Millipore), as previously described in Shosha, et al., Cell death & disease, 7:e2483-e (2016). Images were collected and analyzed in a blinded fashion using a semi-automated method. Four images per retina flat-mount were taken as Z-stacks in the mid-periphery of each retina petal using an inverted confocal microscope (LSM 780; Carl Zeiss). Three images were taken per explant. NeuN-positive cells were quantified using ImageJ software ‘Batch processing’ function. A prerecorded ImageJ macro code (FIG. 23A-23C) was used for batch processing. The macro was validated every time it was used to make sure it is compatible with the set of images being analyzed. Results from three to four images were averaged to represent neuron density for each retina. Results are presented as % of sham retina or control explant under normoxic conditions. […]
The retinal IR model was mimicked by subjecting retinal explants to oxygen-glucose deprivation/reperfusion (OGD/R) ex vivo (FIG. 19A). An OGD time-response experiment established 3 hours of OGD/21 hours of reoxygenation to be optimal for studying retinal neurodegeneration ex vivo with about 60% neuronal survival as measured by NeuN flat-mount staining (FIG. 19B-19E, 19F).

[2] = test system: WT pups subjected to oxygen-induced retinopathy (OIR); experiment: OIR mouse model: morphometric analysis of vaso-obliteration and neovascularization on lectin-labeled retinal flat mounts; assay type: in vivo
Text: OIR mouse model: Wild type (WT) or heterozygous A1 knock out (A1^+/−) mice and their wild type (WT) littermates were subjected to oxygen induced retinopathy (OIR). Because deletion of both copies of A1 is lethal due to hyperammonemia, mice lacking 1 copy of A1 were used which is sufficient to dampen its activity (Zhang, et al., Am J Pathol, 175:891-902 (2009); Elms, et al., Diabetologia, 56:654-662 (2013); Patel, et al., Front Immunol, 4:173 (2014)). OIR was induced in newborn mice according to the protocol of Smith, et al. with some adjustments (Connor, et al., Nature Protocols, 4:1565-1573 (2009)). On P7 (postnatal day 7), mice were placed along with their dams in a hyperoxia (70% oxygen) chamber for up to 5 days, after which they were transferred back to room air on P12. The 70% oxygen concentration was used for experiments involving A1^+/− mice based on preliminary experiments showing intolerance of the A1^+/− mice to 75% oxygen treatment. Mice were sacrificed at various times and retinas were collected for analyses (FIG. 1A-1C). In all experiments, mice were compared to their littermate controls. Then data were pooled together to minimize variability between litters due to differences in litter size and weight gain (Kim, et al., Eye and Brain, 8:67-79 (2016)). These experiments were performed in accordance with the ARVO Statement for the Use of Animals in Ophthalmic and Vision Research, and were approved by the institutional animal care and use committee.
Analysis of vaso-obliteration and neovascularization: Eyeballs were fixed in 4% paraformaldehyde (PFA) overnight. Retina flat-mounts were dissected and then blocked and permeabilized in phosphate-buffered saline (PBS) containing 10% goat serum and 1% Triton X-100 (Sigma-Aldrich) for 30 minutes. Retinas were then immunolabeled with Alex594-labeled Griffonia simplicifolia isolectin B4 (1:200; Invitrogen, Carlsbad, Calif.) overnight at 4° C. Retinas were flat-mounted in mounting medium (Vectashield; Vector Laboratories, Burlingame, Calif.) and images were captured using fluorescence microscopy (Axioplan 2, Carl Zeiss Vision Inc.). Areas of central capillary dropout (vaso-obliteration, VO) and vitreoretinal neovascular tufts (neovascularization, NV) were quantified in a masked fashion using ImageJ software (NIH, Bethesda, Md.) (Connor, et al., Nature Protocols, 4:1565-1573 (2009); Patel, et al., Am J Pathol, 184:3040-3051 (2014)). High-magnification images were acquired to perform vessel sprouting analysis. Vessel sprouts were counted as previously described Patel, et al., Am J Pathol, 184:3040-3051 (2014)).
PBS was used as vehicle control. Pups were anesthetized before treatment by intraperitoneal (i.p.) injection of ketamine/xylazine mixture. Intravitreal injections were performed using a 36-gauge NanoFil needle mounted to a 10-μL Hamilton syringe (World Precision Instruments). Two treatment strategies were employed. […] The P9 time point was selected based on the fact that vaso-obliteration occurs within the first 48 hours of hyperoxia treatment (Connor, et al., Nature Protocols, 4:1565-1573 (2009); Lange, et al., Graefe's archive for clinical and experimental ophthalmology, 247:1205-1211 (2009); Gu, et al., Investigative ophthalmology & visual science, 43:496-502 (2002)).

[3] = test system: primary rat retinal mixed neurons; experiment: Primary retinal mixed neurons subjected to OGD/R, LDH release assay; settings: 6 hours OGD and 18 hours reperfusion, PEG-A1 1 μg/mL at reoxygenation
Procedure: Retinas from ten pups were collected and washed twice with ice-cold 1×PBS. They were digested with 0.5% trypsin for 3-4 min at 37° C., followed by trypsin inactivation with the culture medium, DMEM/F12 (Gibco, Grand Island, N.Y.) plus 10% FBS and 1% Penicillin-Streptomycin (P/S) solution (Invitrogen, Grand Island, N.Y.). The retina tissue was mechanically dissociated by pipetting several times until cells were dispersed. Cells were then filtered through a 40 μm nylon-mesh filter, collected by centrifugation at 1000 rpm for 10 min, re-suspended in culture medium, and plated in 6 or 12 well-cell culture plates (Corning, Corning, N.Y.) coated with Poly-D-lysine hydrobromide (PDL, Sigma) at a density of 0.5×10^6 cells/mL. The plates were maintained in a humidified CO2 incubator at 37° C. and 5% CO2. At days 1, 2, and 3 in vitro (DIV), half of the medium was aspirated and replaced with Neurobasal A medium containing 1×B-27 (GIBCO), 1× glutaMAX (GIBCO) and 1% P/S. Experiments were conducted at DIV 6.

[4] = intravitreal 6.8 ng in 0.5 μL at P12, analysis at P17

B1: PEG-A1: recombinant human arginase (rhArg) covalently attached to methoxy polyethylene glycol (mPEG-SPA; MW 5,000) via succinamide propionic acid (SPA) linker (protein, UniProt P05089 1-322, looked up)
Arginase-1: MSAKSRTIGIIGAPFSKGQPRGGVEEGPTVLRKAGLLEKLKEQECDVKDYGDLPFADIPNDSPFQIVKNPRSVGKASEQLAGKVAEVKKNGRISLVLGGDHSLAIGSISGHARVHPDLGVIWVDAHTDINTPLTTTSGNLHGQPVSFLLKELKGKIPDVPGFSWVTPCISAKDIVYIGLRDVDPGEHYILKTLGIKYFSMTEVDRLGIGKVMEETLSYLLGRKKRPIHLSFDVDGLDPSFTPATGTPVVGGLTYREGLYITEEIYKTGLLSGLDIMEVNPSLGKTPEEVTRTVNTAVAITLACFGLAREGNHKPIDYLNPPK
modifications: mPEG-SPA 5 kDa conjugate
notes: recombinant human arginase (rhArg) covalently attached to methoxy polyethylene glycol (mPEG-SPA; MW 5,000) via succinamide propionic acid (SPA) linker
safety and tolerability in humans [1]: safe and well-tolerated
neuronal survival of retina explants (NeuN) (retinal explants): 73%
hyperoxia-induced vaso-obliteration (capillary dropout area) ([2]; intravitreal 6.8 ng in 0.5 μL at P7, hyperoxia, P9): does not affect
avascular area [2, 4]: avascular area was reduced
endothelial tip cells (vessel sprouts) per field of view [2, 4]: two-fold increase
neovascular tufts (pathological neovascularization) [2, 4]: reduced neovascular tufts
lectin-positive vitreal macrophages after OIR ([2]; intravitreal PEG-A1, vs vehicle): increased
cell death (LDH release) [3]: increased cell death
